Measurements as given in patent US20140087995A1 (published 2014).
Numbered stars: 1 amine (or outer) side, 2 acyl side, 3 side chain; on linkers, the order of the positions; unused ones are H or OH. Bridge positions count the residues as written; N and C are the ends. Side chains are listed from the residue outwards. Ends that are not written are not given here. * marks the point of attachment. C20 diacid = O=C(O)CCCCCCCCCCCCCCCCCCC(=O)*; γGlu = O=C(O)[C@H](CCC(=O)[*:2])N[*:1]; AEEA = NCCOCCOCC(=O)O

B1: N^ε1-[2-[2-[2-[[(4S)-4-carboxy-4-(19-carboxynonadecanoylamino)butanoyl]amino]ethoxy]ethoxy]acetyl]-[Arg17,Pro21,Pro27,Pro29,Pro31]-h-amylin (peptide)
peptide: K([AEEA-γGlu-C20 diacid])CNTATCATQRLANFLRHSSPNFGAIPSPTPVGSNTY-NH2
modifications: disulfide 2-7; N-terminus assumed
SMILES: CC[C@H](C)[C@H](NC(=O)[C@H](C)NC(=O)CNC(=O)[C@H](Cc1ccccc1)NC(=O)[C@H](CC(N)=O)NC(=O)[C@@H]1CCCN1C(=O)[C@H](CO)NC(=O)[C@H](CO)NC(=O)[C@H](Cc1c[nH]cn1)NC(=O)[C@H](CCCNC(=N)N)NC(=O)[C@H](CC(C)C)NC(=O)[C@H](Cc1ccccc1)NC(=O)[C@H](CC(N)=O)NC(=O)[C@H](C)NC(=O)[C@H](CC(C)C)NC(=O)[C@H](CCCNC(=N)N)NC(=O)[C@H](CCC(N)=O)NC(=O)[C@@H](NC(=O)[C@H](C)NC(=O)[C@@H]1CSSC[C@H](NC(=O)[C@@H](N)CCCCNC(=O)COCCOCCNC(=O)CC[C@H](NC(=O)CCCCCCCCCCCCCCCCCCC(=O)O)C(=O)O)C(=O)N[C@@H](CC(N)=O)C(=O)N[C@@H]([C@@H](C)O)C(=O)N[C@@H](C)C(=O)N[C@@H]([C@@H](C)O)C(=O)N1)[C@@H](C)O)C(=O)N1CCC[C@H]1C(=O)N[C@@H](CO)C(=O)N1CCC[C@H]1C(=O)N[C@H](C(=O)N1CCC[C@H]1C(=O)N[C@H](C(=O)NCC(=O)N[C@@H](CO)C(=O)N[C@@H](CC(N)=O)C(=O)N[C@H](C(=O)N[C@@H](Cc1ccc(O)cc1)C(N)=O)[C@@H](C)O)C(C)C)[C@@H](C)O
notes: h-amylin derivative; disulfide bridge and C-terminal amide as told for human amylin; also called compound 54
B2: N^ε1-[2-[2-[2-[[(4S)-4-carboxy-4-(19-carboxynonadecanoylamino)butanoyl]amino]ethoxy]ethoxy]acetyl]-[Arg17,Pro21,Pro27,Pro29,Pro34]-h-amylin (peptide)
peptide: K([AEEA-γGlu-C20 diacid])CNTATCATQRLANFLRHSSPNFGAIPSPTNVGPNTY-NH2
modifications: disulfide 2-7; N-terminus assumed
SMILES: CC[C@H](C)[C@H](NC(=O)[C@H](C)NC(=O)CNC(=O)[C@H](Cc1ccccc1)NC(=O)[C@H](CC(N)=O)NC(=O)[C@@H]1CCCN1C(=O)[C@H](CO)NC(=O)[C@H](CO)NC(=O)[C@H](Cc1c[nH]cn1)NC(=O)[C@H](CCCNC(=N)N)NC(=O)[C@H](CC(C)C)NC(=O)[C@H](Cc1ccccc1)NC(=O)[C@H](CC(N)=O)NC(=O)[C@H](C)NC(=O)[C@H](CC(C)C)NC(=O)[C@H](CCCNC(=N)N)NC(=O)[C@H](CCC(N)=O)NC(=O)[C@@H](NC(=O)[C@H](C)NC(=O)[C@@H]1CSSC[C@H](NC(=O)[C@@H](N)CCCCNC(=O)COCCOCCNC(=O)CC[C@H](NC(=O)CCCCCCCCCCCCCCCCCCC(=O)O)C(=O)O)C(=O)N[C@@H](CC(N)=O)C(=O)N[C@@H]([C@@H](C)O)C(=O)N[C@@H](C)C(=O)N[C@@H]([C@@H](C)O)C(=O)N1)[C@@H](C)O)C(=O)N1CCC[C@H]1C(=O)N[C@@H](CO)C(=O)N1CCC[C@H]1C(=O)N[C@H](C(=O)N[C@@H](CC(N)=O)C(=O)N[C@H](C(=O)NCC(=O)N1CCC[C@H]1C(=O)N[C@@H](CC(N)=O)C(=O)N[C@H](C(=O)N[C@@H](Cc1ccc(O)cc1)C(N)=O)[C@@H](C)O)C(C)C)[C@@H](C)O
notes: h-amylin derivative; disulfide bridge and C-terminal amide as told for human amylin; also called compound 56
B3: N^ε1-[2-[2-[2-[[(4S)-4-carboxy-4-(19-carboxynonadecanoylamino)butanoyl]amino]ethoxy]ethoxy]acetyl]-[Arg17,Pro21,Pro27,Pro31,His35]-h-amylin (peptide)
peptide: K([AEEA-γGlu-C20 diacid])CNTATCATQRLANFLRHSSPNFGAIPSSTPVGSHTY-NH2
modifications: disulfide 2-7; N-terminus assumed
SMILES: CC[C@H](C)[C@H](NC(=O)[C@H](C)NC(=O)CNC(=O)[C@H](Cc1ccccc1)NC(=O)[C@H](CC(N)=O)NC(=O)[C@@H]1CCCN1C(=O)[C@H](CO)NC(=O)[C@H](CO)NC(=O)[C@H](Cc1c[nH]cn1)NC(=O)[C@H](CCCNC(=N)N)NC(=O)[C@H](CC(C)C)NC(=O)[C@H](Cc1ccccc1)NC(=O)[C@H](CC(N)=O)NC(=O)[C@H](C)NC(=O)[C@H](CC(C)C)NC(=O)[C@H](CCCNC(=N)N)NC(=O)[C@H](CCC(N)=O)NC(=O)[C@@H](NC(=O)[C@H](C)NC(=O)[C@@H]1CSSC[C@H](NC(=O)[C@@H](N)CCCCNC(=O)COCCOCCNC(=O)CC[C@H](NC(=O)CCCCCCCCCCCCCCCCCCC(=O)O)C(=O)O)C(=O)N[C@@H](CC(N)=O)C(=O)N[C@@H]([C@@H](C)O)C(=O)N[C@@H](C)C(=O)N[C@@H]([C@@H](C)O)C(=O)N1)[C@@H](C)O)C(=O)N1CCC[C@H]1C(=O)N[C@@H](CO)C(=O)N[C@@H](CO)C(=O)N[C@H](C(=O)N1CCC[C@H]1C(=O)N[C@H](C(=O)NCC(=O)N[C@@H](CO)C(=O)N[C@@H](Cc1c[nH]cn1)C(=O)N[C@H](C(=O)N[C@@H](Cc1ccc(O)cc1)C(N)=O)[C@@H](C)O)C(C)C)[C@@H](C)O
notes: h-amylin derivative; disulfide bridge and C-terminal amide as told for human amylin; also called compound 57
B4: N^ε1-[2-[2-[2-[[(4S)-4-carboxy-4-(19-carboxynonadecanoylamino)butanoyl]amino]ethoxy]ethoxy]acetyl]-[Arg17,Pro21,Pro27,Pro34,His35]-h-amylin (peptide)
peptide: K([AEEA-γGlu-C20 diacid])CNTATCATQRLANFLRHSSPNFGAIPSSTNVGPHTY-NH2
modifications: disulfide 2-7; N-terminus assumed
SMILES: CC[C@H](C)[C@H](NC(=O)[C@H](C)NC(=O)CNC(=O)[C@H](Cc1ccccc1)NC(=O)[C@H](CC(N)=O)NC(=O)[C@@H]1CCCN1C(=O)[C@H](CO)NC(=O)[C@H](CO)NC(=O)[C@H](Cc1c[nH]cn1)NC(=O)[C@H](CCCNC(=N)N)NC(=O)[C@H](CC(C)C)NC(=O)[C@H](Cc1ccccc1)NC(=O)[C@H](CC(N)=O)NC(=O)[C@H](C)NC(=O)[C@H](CC(C)C)NC(=O)[C@H](CCCNC(=N)N)NC(=O)[C@H](CCC(N)=O)NC(=O)[C@@H](NC(=O)[C@H](C)NC(=O)[C@@H]1CSSC[C@H](NC(=O)[C@@H](N)CCCCNC(=O)COCCOCCNC(=O)CC[C@H](NC(=O)CCCCCCCCCCCCCCCCCCC(=O)O)C(=O)O)C(=O)N[C@@H](CC(N)=O)C(=O)N[C@@H]([C@@H](C)O)C(=O)N[C@@H](C)C(=O)N[C@@H]([C@@H](C)O)C(=O)N1)[C@@H](C)O)C(=O)N1CCC[C@H]1C(=O)N[C@@H](CO)C(=O)N[C@@H](CO)C(=O)N[C@H](C(=O)N[C@@H](CC(N)=O)C(=O)N[C@H](C(=O)NCC(=O)N1CCC[C@H]1C(=O)N[C@@H](Cc1c[nH]cn1)C(=O)N[C@H](C(=O)N[C@@H](Cc1ccc(O)cc1)C(N)=O)[C@@H](C)O)C(C)C)[C@@H](C)O
notes: h-amylin derivative; disulfide bridge and C-terminal amide as told for human amylin; also called compound 58
B5: N^ε1-[(4S)-4-carboxy-4-(19-carboxynonadecanoylamino)butanoyl]-[Glu14,Arg17,Pro21,Pro27,Arg35]-h-amylin (peptide)
peptide: K([γGlu-C20 diacid])CNTATCATQRLAEFLRHSSPNFGAIPSSTNVGSRTY-NH2
modifications: disulfide 2-7; N-terminus assumed
SMILES: CC[C@H](C)[C@H](NC(=O)[C@H](C)NC(=O)CNC(=O)[C@H](Cc1ccccc1)NC(=O)[C@H](CC(N)=O)NC(=O)[C@@H]1CCCN1C(=O)[C@H](CO)NC(=O)[C@H](CO)NC(=O)[C@H](Cc1c[nH]cn1)NC(=O)[C@H](CCCNC(=N)N)NC(=O)[C@H](CC(C)C)NC(=O)[C@H](Cc1ccccc1)NC(=O)[C@H](CCC(=O)O)NC(=O)[C@H](C)NC(=O)[C@H](CC(C)C)NC(=O)[C@H](CCCNC(=N)N)NC(=O)[C@H](CCC(N)=O)NC(=O)[C@@H](NC(=O)[C@H](C)NC(=O)[C@@H]1CSSC[C@H](NC(=O)[C@@H](N)CCCCNC(=O)CC[C@H](NC(=O)CCCCCCCCCCCCCCCCCCC(=O)O)C(=O)O)C(=O)N[C@@H](CC(N)=O)C(=O)N[C@@H]([C@@H](C)O)C(=O)N[C@@H](C)C(=O)N[C@@H]([C@@H](C)O)C(=O)N1)[C@@H](C)O)C(=O)N1CCC[C@H]1C(=O)N[C@@H](CO)C(=O)N[C@@H](CO)C(=O)N[C@H](C(=O)N[C@@H](CC(N)=O)C(=O)N[C@H](C(=O)NCC(=O)N[C@@H](CO)C(=O)N[C@@H](CCCNC(=N)N)C(=O)N[C@H](C(=O)N[C@@H](Cc1ccc(O)cc1)C(N)=O)[C@@H](C)O)C(C)C)[C@@H](C)O
notes: h-amylin derivative; disulfide bridge and C-terminal amide as told for human amylin; also called compound 51
B6: N^-1-[(4S)-4-carboxy-4-(19-carboxynonadecanoylamino)butanoyl]-Gly[Arg1,Arg17,Pro21,Pro27,His35]-h-amylin (peptide)
peptide: {C20 diacid-γGlu}-GRCNTATCATQRLANFLRHSSPNFGAIPSSTNVGSHTY-NH2
modifications: disulfide 3-8
SMILES: CC[C@H](C)[C@H](NC(=O)[C@H](C)NC(=O)CNC(=O)[C@H](Cc1ccccc1)NC(=O)[C@H](CC(N)=O)NC(=O)[C@@H]1CCCN1C(=O)[C@H](CO)NC(=O)[C@H](CO)NC(=O)[C@H](Cc1c[nH]cn1)NC(=O)[C@H](CCCNC(=N)N)NC(=O)[C@H](CC(C)C)NC(=O)[C@H](Cc1ccccc1)NC(=O)[C@H](CC(N)=O)NC(=O)[C@H](C)NC(=O)[C@H](CC(C)C)NC(=O)[C@H](CCCNC(=N)N)NC(=O)[C@H](CCC(N)=O)NC(=O)[C@@H](NC(=O)[C@H](C)NC(=O)[C@@H]1CSSC[C@H](NC(=O)[C@H](CCCNC(=N)N)NC(=O)CNC(=O)CC[C@H](NC(=O)CCCCCCCCCCCCCCCCCCC(=O)O)C(=O)O)C(=O)N[C@@H](CC(N)=O)C(=O)N[C@@H]([C@@H](C)O)C(=O)N[C@@H](C)C(=O)N[C@@H]([C@@H](C)O)C(=O)N1)[C@@H](C)O)C(=O)N1CCC[C@H]1C(=O)N[C@@H](CO)C(=O)N[C@@H](CO)C(=O)N[C@H](C(=O)N[C@@H](CC(N)=O)C(=O)N[C@H](C(=O)NCC(=O)N[C@@H](CO)C(=O)N[C@@H](Cc1c[nH]cn1)C(=O)N[C@H](C(=O)N[C@@H](Cc1ccc(O)cc1)C(N)=O)[C@@H](C)O)C(C)C)[C@@H](C)O
notes: h-amylin derivative, N-terminally extended by one residue; disulfide bridge and C-terminal amide as told for human amylin; also called compound 47

The binders below were run against T1, human amylin 3(a) receptor (human calcitonin receptor co-expressed with RAMP-3) (human, UniProt P30988 25-474; O60896 24-148, limits assumed) (assay: cell-based or functional assay).
T1 sequence (looked up) 1: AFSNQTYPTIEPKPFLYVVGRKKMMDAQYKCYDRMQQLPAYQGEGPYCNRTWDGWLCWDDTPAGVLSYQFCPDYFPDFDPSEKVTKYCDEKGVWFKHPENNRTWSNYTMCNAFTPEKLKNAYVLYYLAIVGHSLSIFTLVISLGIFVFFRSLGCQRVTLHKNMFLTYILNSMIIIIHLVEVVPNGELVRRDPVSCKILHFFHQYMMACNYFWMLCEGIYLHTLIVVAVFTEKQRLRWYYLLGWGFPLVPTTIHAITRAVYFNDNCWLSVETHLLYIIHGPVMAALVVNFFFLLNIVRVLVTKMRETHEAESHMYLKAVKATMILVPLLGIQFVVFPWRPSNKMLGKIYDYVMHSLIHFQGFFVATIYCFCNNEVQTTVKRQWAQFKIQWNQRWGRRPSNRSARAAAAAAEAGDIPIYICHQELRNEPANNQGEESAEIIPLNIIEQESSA
T1 sequence (looked up) 2: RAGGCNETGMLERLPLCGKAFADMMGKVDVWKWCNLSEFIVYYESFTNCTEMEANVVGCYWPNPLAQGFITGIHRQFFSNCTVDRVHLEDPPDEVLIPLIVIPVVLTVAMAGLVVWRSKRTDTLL

Ratio hCT/hAmylin funct.	hAmylin-R funct. EC50	Binder
9.6		B1
5	102 pM	B2
	89 pM	B3
	47 pM	B4
14		B5
6		B6

These binders were tested against T2, human calcitonin receptor (human, UniProt P30988 25-474) (assay: cell-based or functional assay).
T2 sequence (looked up): T1 sequence (looked up) 1

hCTR funct. EC50	Binder
987 pM	B1
506 pM	B2
3120 pM	B3
1030 pM	B4
5220 pM	B5
1320 pM	B6
